# Test results: patent US20230312758A1, “BISPECIFIC ANTIBODY AGAINST CD3 AND CD20 IN COMBINATION THERAPY FOR TREATING FOLLICULAR LYMPHOMA” (GENMAB A/S, priority 2020, published 2023)
# Tests used:
# follicular lymphoma = details: double-refractory cases; cited from earlier work
# CD20 = target: T1, CD20 (Homo sapiens, UniProt P11836); details: rituximab versus IgG1-CD20; bind to a different epitope; cited from earlier work
# T1 sequence (P11836 1-297): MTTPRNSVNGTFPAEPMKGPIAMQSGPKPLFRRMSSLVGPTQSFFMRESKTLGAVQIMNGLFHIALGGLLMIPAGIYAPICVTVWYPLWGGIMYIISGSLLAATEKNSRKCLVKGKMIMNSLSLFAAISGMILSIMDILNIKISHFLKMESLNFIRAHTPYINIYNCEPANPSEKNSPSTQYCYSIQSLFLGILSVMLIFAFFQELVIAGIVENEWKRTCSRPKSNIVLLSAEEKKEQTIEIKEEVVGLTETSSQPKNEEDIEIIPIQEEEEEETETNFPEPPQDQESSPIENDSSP
# [1] = system: CD20-expressing Raji-luc tumor cells; details: NOD-SCID mice injected with Raji-luc tumor cells and PBMCs; even in presence of excess IgG1-RTX-FEAR; cited from earlier work
# R/R B-NHL = assay: epcoritamab monotherapy clinical trial (NCT03625037); type: in vivo, human; details: R/R B-NHL patients, preliminary data
# Source text: Epcoritamab as monotherapy is currently in a clinical trial for the treatment of R/R B-NHL (ClinicalTrials.gov Identifier: NCT03625037).
# R/R follicular lymphoma = assay: Phase 1b study of epcoritamab with rituximab and lenalidomide (R^2); type: in vivo, human; details: preliminary data
# Method: The trial is conducted in 2 parts: dose escalation (Part 1) and expansion (Part 2). Subjects participate in only one part. Both parts consist of a screening period, a treatment period, a safety follow-up period, and a survival follow-up period.
# The Part 1 dose escalation assesses the initial safety, tolerability, and clinical activity of epcoritamab in combination with R^2. Epcoritamab is initially be administered in combination with R^2 in a 3-subject cohort. DLTs are evaluated during the first 28 days. […]
# In Part 2, epcoritamab is administered (with the dosing regimen determined in the dose escalation part) in combination with R^2. […]
# Disease response is assessed according to both Lugano criteria (described in Cheson et al., J Clin Oncol 2014; 32:3059-68 (see, in particular, Table 3 in Cheson et al., 2014) and LYRIC (Table 8) to inform decisions on continuation of treatment. […]
# Safety is assessed by measuring adverse events, laboratory test results, ECGs, vital sign measurements, physical examination findings, and ECOG performance status. Also assessed are immune effector cell-associated neurotoxicity syndrome (e.g., as described by Lee et al., Biol BloodMarrow Transplant 2019; 25:625-638), constitutional symptoms (B symptoms), tumor flare reaction, and survival. […]
# [2] = system: CD20-expressing Daudi cells; assay: DuoBody-CD3xCD20-induced T-cell-mediated cytotoxicity assay; type: cell-based; details: T cells pre-treated with lenalidomide and anti-CD3; E:T ratio 2:1
# Method: T cells were incubated with (5 or 50 μM) or without lenalidomide in the absence or presence of immobilized anti-CD3 for 3 days. T cells were then used in a cytotoxicity assay with DuoBody-CD3xCD20 or DuoBody-CD3xctrl (containing a CD3 arm and a non-binding control arm) and CD20-expressing Daudi cells as target cells (E:T ratio 2:1). Data shown are average percentages cytotoxicity ±SD of duplicates, normalized to medium control (no antibody, no lenalidomide).
# (§1) This experiment was performed to determine the impact of lenalidomide on Duobody-CD3xCD20-induced T-cell activation and T-cell-mediated cytotoxicity.
# (§2) Briefly, T cells were activated with immobilized anti-CD3 in the presence (5 or 50 μM) or absence of lenalidomide for 3 days. […] T cells that were activated in the presence or absence of lenalidomide were subsequently tested for their cytotoxic capacity in response to epcoritamab.
# [3] = system: primary DLBCL and follicular lymphoma patient biopsies; details: cited from earlier work
# T cells = assay: T-cell activation with immobilized anti-CD3 in presence or absence of lenalidomide; type: cell-based; details: 5 or 50 μM lenalidomide, CD3 crosslinking, 3 days; compared to no lenalidomide
# Method: T cells were pre-incubated with assay medium or lenalidomide in the absence or presence of CD3 crosslinking by immobilized anti-CD3 for 3 days (as indicated on the x-axes), after which upregulation of CD69, CD25, PD-1 and LAMP-1 on CD4^+ and CD8^+ T cells was determined by flow cytometry. Data shown are geomean fluorescence intensities (FI) for four donors (each circle represents one condition for one donor). Pre-incubation conditions are shown on the x-axis.
# as §1, §2
compound,measurement,setting,value
CC[C@H](Nc1ncnc2[nH]cnc12)c1nc2cccc(F)c2c(=O)n1-c1ccccc1 [idelalisib],1-year PFS,follicular lymphoma,43%
same,toxicities,follicular lymphoma,several toxicities leading to treatment discontinuation
IgG1-CD20: antibody of which the CD20 arm of epcoritamab is derived,competition for CD20 binding,CD20,compete for CD20 binding
epcoritamab: IgG1 bispecific CD3xCD20 antibody; heavy/light chain pairs SEQ ID NOs: 24/25 and 26/27; CAS 2134641-34-0,tumor growth,[1],effectively reduce tumor growth
same,tolerated dose,R/R B-NHL; including 60 mg,at least 48 mg
same,dose-limiting toxicities,R/R B-NHL,no dose-limiting toxicities reported
same,incidence of CRS compared with single-agent epcoritamab,R/R follicular lymphoma,relatively lower incidence of CRS with the combination
same,cytotoxicity (dose response),[2],Higher maximum percent cytotoxicity and higher activity at lower epcoritamab concentrations
same,tumor cell kill,[3]; biopsy taken 2 weeks after administering the anti-CD20 antibody,up to 40%
same,T-cell-mediated cytotoxicity,[3],induced T-cell-mediated cytotoxicity
"Nc1cccc2c1CN(C1CCC(=O)NC1=O)C2=O (centres unmarked) [lenalidomide, 3-(4-Amino-1-oxo-1,3-dihydro-2H-isoindol-2-yl) piperidine-2,6-dione]","T-cell activation (CD69, CD25 upregulation, release of granzyme B and IFNγ)",T cells,increased T-cell activation
